Consider one molecule from EP4559472A1.

The experiment addresses Biotinylated C4b (UniProt P0C0L4). Nature of the experiment: SPR, biotinylated C4b on streptavidin chip, 1:1 steady-state affinity model.

B1: C4BP(1-4) (protein)
chain: AGNCGPPPTLSFAAPMDITLTETRFKTGTTLKYTCLPGYVRSHSTQTLTCNSDGEWVYNTFCIYKRCRHPGELRNGQVEIKTDLSFGSQIEFSCSEGFFLIGSTTSRCEVQDRGVGWSHPLPQCEIVKCKPPPDIRNGRHSGEENFYAYGFSVTYSCDPRFSLLGHASISCTVENETIGVWRPSPPTCEKITCRKPDVSHGEMVSGFGPIYNYKDTIVFKCQKGFVLRGSSVIHCDADSKWNPSPPACEP
Molecule B1 gave a Kd of 2.9 µM. That is a single-digit micromolar value.
